Measurements reported in PMC11169542, “A probe for NIR-II imaging and multimodal analysis of early Alzheimer’s disease by targeting CTGF” (Nature Communications, 2024).
Ends that are not written are not given here.

Experiments:
CTX TNA2 cells = assay: Cytotoxicity of DGC (CCK-8); assay type: cell-based; set-up: key to Cell viability: viability relative to control cells (control = 1); settings: for Cell viability: 24 h, CCK-8, normalized to control
Procedure: U87MG, SH-SY5Y, and CTX TNA2 cells were seeded into 96-well plates at a density of 5 × 10^3 cells per well and were incubated at 37 °C for 24 h. Then, the cells were treated with 5, 10, 20, 50, 100, and 500 µM DGC for 24 h. Next, 10 µL of a colorimetric Cell Counting Kit (CCK-8) reagent diluted with 100 µL medium was added to each well, and incubated for 30 min, The absorbance at 450 nm was measured using a microplate reader (Molecular Devices, San Jose, CA, USA). The relative viability was normalized to control cells. The experiment was performed in triplicates.

CTGF [1] = biological target: T1, CTGF (Homo sapiens, UniProt P29279); assay: DAB chromogenic imaging of DGC-labelled human brain sections; set-up: The brain tissue samples of autopsy-confirmed AD patients were obtained from the Chinese Brain Bank Center; from tissue; host or cells: postmortem human brain sections (hippocampus, cortex) of AD patients and healthy controls; settings: 200 μM DGC 4 °C overnight + DAB
T1 sequence (P29279 27-349): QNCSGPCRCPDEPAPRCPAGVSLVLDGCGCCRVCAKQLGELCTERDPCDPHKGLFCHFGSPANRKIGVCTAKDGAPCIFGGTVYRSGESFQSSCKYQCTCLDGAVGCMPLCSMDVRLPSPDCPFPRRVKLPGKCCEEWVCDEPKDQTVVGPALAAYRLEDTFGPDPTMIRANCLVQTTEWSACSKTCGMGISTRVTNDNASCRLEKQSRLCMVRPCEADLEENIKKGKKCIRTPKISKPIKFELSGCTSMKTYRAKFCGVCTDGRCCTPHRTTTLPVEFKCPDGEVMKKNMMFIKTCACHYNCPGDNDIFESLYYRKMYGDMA
Procedure: The brain tissue samples of autopsy-confirmed AD patients were obtained from the Chinese Brain Bank Center (CBBC) and Human Brain Bank, Central South University Xiangya School of Medicine. First, the brain sections were air-dried for 15 min at room temperature, followed by immersion in water. 5% H2O2 was applied for 15 min at room temperature. The sections were washed three times with PBS for 5 min each time. Then, tissue repair was performed using trypsin at a temperature of 37 °C for 5 min and washed three times with PBS. We chose 10% sheep serum to block for a duration of 20 min at 37°. Primary antibodies (CTGF antibody and Aβ antibody) were added to the sections overnight at 4 °C. FITC-labeled Goat Anti-Rabbit IgG (H + L) (1: dilution 1:200, Bioss, Cat#bs-0370R-FITC) was applied and incubated at 37 °C for 20 min in darkness. Subsequent washing steps involved rinsing the sections three times with PBS, each time lasting for 5 min while avoiding exposure to light. DAPI staining was performed, taking care to store the samples away from light during the 5-min procedure. Then observed by the CLSM system. Then, we chose the optimal incubation concentration of DGC (200 μM) was used to determine the conditions using DAB Horseradish Peroxidase Color Development Kit. After the brain sections were co-stained by DGC (200 μM) at 4 °C overnight, a DAB chromogenic agent was added to the brain tissue sections to explore whether DGC can catalyze DAB solutions to produce insoluble brown precipitate to attach the brain tissue sections with an optical microscope. Finally, the brain tissue sections were digested with aqua regia to measure the Au content by the ICP-MS system.

CTGF [2] = biological target: T2, CTGF (Mus musculus, UniProt P29268); assay: ICP-MS of Au content in DGC-labelled mouse brain sections; set-up: species or system APP/PS1 and wild-type C57BL/6J mice
T2 construct: brain sections of the age-matched wild-type C57BL/6J mice were used as controls; from tissue; host or cells: brain of APP/PS1 transgenic and wild-type C57BL/6J mice (sections, living animal, perfused isolated brain)
T2 sequence (P29268 26-348): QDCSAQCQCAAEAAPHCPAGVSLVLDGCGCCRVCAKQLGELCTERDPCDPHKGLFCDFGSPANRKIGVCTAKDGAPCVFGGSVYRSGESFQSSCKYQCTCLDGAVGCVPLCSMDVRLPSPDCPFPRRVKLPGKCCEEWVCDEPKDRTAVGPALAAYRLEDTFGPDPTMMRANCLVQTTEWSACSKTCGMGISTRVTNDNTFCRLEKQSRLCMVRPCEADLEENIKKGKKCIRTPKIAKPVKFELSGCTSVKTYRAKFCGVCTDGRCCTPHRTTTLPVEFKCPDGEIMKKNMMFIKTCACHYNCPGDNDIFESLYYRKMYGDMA
Procedure: The DGC in the brain section was measured by ICP-MS. Briefly, the brain sections were digested with 5 mL mix solution (HNO3 and H2O2 = 3:1) overnight. Then, each section was digested at a mild boiling temperature until the solution was evaporated to 0.1–0.2 mL and added 5 mL aqua regia (HCl: HNO3 = 3:1) overnight. Then each section was digested at a mild boiling temperature until the solution was evaporated to 0.1– 0.2 mL and diluted by 2% HNO3 and 1% HCl to the final volume.

- DAB chromogenic intensity (CTGF [1]; AD 1, Cortex section): 0.04756
- DAB chromogenic intensity (CTGF [1]; AD 1, Hippocampus section): 0.01899
- DAB chromogenic intensity (CTGF [1]; AD 2, Cortex section): 0.04585
- DAB chromogenic intensity (CTGF [1]; AD 2, Hippocampus section): 0.0257
- DAB chromogenic intensity (CTGF [1]; HC 1, Cortex section): 0.0065
- DAB chromogenic intensity (CTGF [1]; HC 1, Hippocampus section): 0.00154
- DAB chromogenic intensity (CTGF [1]; HC 2, Cortex section): 0.008159
- DAB chromogenic intensity (CTGF [1]; HC 2, Hippocampus section): 0.005
- ICP-MS Au content per section (CTGF [2]; 3-month-old APP/PS1 mouse brain section incubated with DGC, section 1): 36.3
- ICP-MS Au content per section (CTGF [2]; 3-month-old APP/PS1 mouse brain section incubated with DGC, section 2): 50.92
- ICP-MS Au content per section (CTGF [2]; 3-month-old APP/PS1 mouse brain section incubated with DGC, section 3): 74.61
- ICP-MS Au content per section (CTGF [2]; 9-month-old APP/PS1 mouse brain section incubated with DGC, section 1): 87.62
- ICP-MS Au content per section (CTGF [2]; 9-month-old APP/PS1 mouse brain section incubated with DGC, section 2): 82.72
- ICP-MS Au content per section (CTGF [2]; 9-month-old APP/PS1 mouse brain section incubated with DGC, section 3): 97.01
- ICP-MS Au content per section (CTGF [2]; WT mouse brain section incubated with DGC, section 1): 11.2
- ICP-MS Au content per section (CTGF [2]; WT mouse brain section incubated with DGC, section 2): 23.11
- ICP-MS Au content per section (CTGF [2]; WT mouse brain section incubated with DGC, section 3): 12.01
Substance: DGC: CTGF-targeting peptide-coated gold nanocluster: one Au26 gold nanocluster coated by eight DAG cyclic peptides, NIR-II and red fluorescence (CDAGRKQKC; also: cyclic peptide, ring not given here, eight peptides on one Au26 nanocluster via Cys Au-S bonds)
- Cell viability (CTX TNA2 cells; 5 μM (Au content), replicate 1): 1.236
- Cell viability (CTX TNA2 cells; 5 μM (Au content), replicate 2): 1.185
- Cell viability (CTX TNA2 cells; 5 μM (Au content), replicate 3): 1.252
- Cell viability (CTX TNA2 cells; 10 μM (Au content), replicate 1): 1.248
- Cell viability (CTX TNA2 cells; 10 μM (Au content), replicate 2): 1.23
- Cell viability (CTX TNA2 cells; 10 μM (Au content), replicate 3): 1.328
- Cell viability (CTX TNA2 cells; 20 μM (Au content), replicate 1): 1.233
- Cell viability (CTX TNA2 cells; 20 μM (Au content), replicate 2): 1.3
- Cell viability (CTX TNA2 cells; 20 μM (Au content), replicate 3): 1.347
- Cell viability (CTX TNA2 cells; 50 μM (Au content), replicate 1): 1.269
- Cell viability (CTX TNA2 cells; 50 μM (Au content), replicate 2): 1.237
- Cell viability (CTX TNA2 cells; 50 μM (Au content), replicate 3): 1.251
- Cell viability (CTX TNA2 cells; 100 μM (Au content), replicate 1): 1.349
- Cell viability (CTX TNA2 cells; 100 μM (Au content), replicate 2): 1.363
- Cell viability (CTX TNA2 cells; 100 μM (Au content), replicate 3): 1.443
- Cell viability (CTX TNA2 cells; 500 μM (Au content), replicate 1): 1.758
- Cell viability (CTX TNA2 cells; 500 μM (Au content), replicate 2): 1.646
- Cell viability (CTX TNA2 cells; 500 μM (Au content), replicate 3): 1.62
- cytotoxicity (CTX TNA2 cells; DGC incubation 24 h, CCK-8): did not cause any obvious cytotoxicity
